Test results taken from US20210292414A1 (H LUNDBECK A S, published 2021).
Residue numbers refer to the chain shown, from its start. One block for each binder: values may come before it.

Tests used:
Test in all cases: BLI (Octet384RED)
[1] = target: T1, Sortilin SORTECDBAP_hB06-10 (human/tetraodon chimera)
T1 construct: Shuffle construct: chimeric human/tetraodon Sortilin ECD with BAP tag
T1 chain: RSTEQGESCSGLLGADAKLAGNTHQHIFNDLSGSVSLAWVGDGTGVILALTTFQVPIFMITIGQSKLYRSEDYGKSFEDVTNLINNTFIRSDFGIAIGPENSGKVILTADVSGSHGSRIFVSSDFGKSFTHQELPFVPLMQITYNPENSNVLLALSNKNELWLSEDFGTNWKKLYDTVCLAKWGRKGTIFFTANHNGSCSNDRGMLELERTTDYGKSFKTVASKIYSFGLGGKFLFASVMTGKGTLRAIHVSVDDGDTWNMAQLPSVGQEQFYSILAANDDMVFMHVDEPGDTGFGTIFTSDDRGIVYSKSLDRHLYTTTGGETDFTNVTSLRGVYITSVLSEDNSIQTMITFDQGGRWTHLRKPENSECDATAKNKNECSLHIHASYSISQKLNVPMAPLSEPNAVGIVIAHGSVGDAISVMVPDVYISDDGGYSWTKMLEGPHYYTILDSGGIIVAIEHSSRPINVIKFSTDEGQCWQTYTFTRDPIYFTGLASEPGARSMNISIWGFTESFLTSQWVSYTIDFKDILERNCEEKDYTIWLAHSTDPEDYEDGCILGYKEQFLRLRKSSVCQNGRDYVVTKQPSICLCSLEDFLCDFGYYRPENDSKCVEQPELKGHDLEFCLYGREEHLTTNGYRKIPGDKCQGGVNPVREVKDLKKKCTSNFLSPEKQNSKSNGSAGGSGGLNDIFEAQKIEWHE

[2] = target: T2, Sortilin SORTECDBAP_hB45678 (human/tetraodon chimera)
T2 construct: Shuffle construct: chimeric human/tetraodon Sortilin ECD with BAP tag
T2 chain: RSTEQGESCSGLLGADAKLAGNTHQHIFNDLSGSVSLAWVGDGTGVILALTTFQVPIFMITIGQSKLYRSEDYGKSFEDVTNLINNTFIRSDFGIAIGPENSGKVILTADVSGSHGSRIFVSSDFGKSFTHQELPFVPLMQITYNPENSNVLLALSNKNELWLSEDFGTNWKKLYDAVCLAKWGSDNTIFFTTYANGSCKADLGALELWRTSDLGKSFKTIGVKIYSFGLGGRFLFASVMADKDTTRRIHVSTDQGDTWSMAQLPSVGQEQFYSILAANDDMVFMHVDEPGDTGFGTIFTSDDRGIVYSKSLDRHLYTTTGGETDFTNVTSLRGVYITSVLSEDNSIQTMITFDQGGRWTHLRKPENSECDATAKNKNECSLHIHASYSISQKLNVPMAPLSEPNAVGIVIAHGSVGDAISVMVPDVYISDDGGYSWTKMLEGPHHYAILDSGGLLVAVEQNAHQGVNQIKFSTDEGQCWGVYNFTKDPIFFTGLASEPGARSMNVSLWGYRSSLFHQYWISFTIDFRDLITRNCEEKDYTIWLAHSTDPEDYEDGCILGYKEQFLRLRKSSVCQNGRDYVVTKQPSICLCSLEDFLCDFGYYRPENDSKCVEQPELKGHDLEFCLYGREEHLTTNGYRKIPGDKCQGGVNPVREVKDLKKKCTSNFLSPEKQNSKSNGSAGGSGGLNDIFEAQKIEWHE

hBack = target: T3, hBack
T3 chimeric human/tetraodon Sortilin extracellular region, BAP tag: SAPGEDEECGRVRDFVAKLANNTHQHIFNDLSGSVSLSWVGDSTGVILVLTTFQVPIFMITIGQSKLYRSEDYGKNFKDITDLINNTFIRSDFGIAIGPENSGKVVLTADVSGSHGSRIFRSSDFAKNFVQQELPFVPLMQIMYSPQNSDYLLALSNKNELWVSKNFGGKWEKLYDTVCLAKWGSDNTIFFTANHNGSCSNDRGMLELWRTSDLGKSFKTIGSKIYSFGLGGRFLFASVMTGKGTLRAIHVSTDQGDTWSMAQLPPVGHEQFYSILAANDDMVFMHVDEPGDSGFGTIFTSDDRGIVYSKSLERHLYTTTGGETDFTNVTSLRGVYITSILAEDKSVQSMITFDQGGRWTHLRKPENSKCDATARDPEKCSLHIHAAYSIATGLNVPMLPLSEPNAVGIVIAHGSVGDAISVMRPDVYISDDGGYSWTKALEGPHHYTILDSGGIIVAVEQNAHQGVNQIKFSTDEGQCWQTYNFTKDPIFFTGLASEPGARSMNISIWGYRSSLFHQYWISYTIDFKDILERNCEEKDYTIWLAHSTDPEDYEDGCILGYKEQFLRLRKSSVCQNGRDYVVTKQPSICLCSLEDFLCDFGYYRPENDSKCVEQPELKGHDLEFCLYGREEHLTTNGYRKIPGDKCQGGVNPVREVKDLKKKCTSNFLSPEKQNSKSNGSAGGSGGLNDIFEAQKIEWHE

hRim = target: T4, hRim
T4 chimeric human/tetraodon Sortilin extracellular region, BAP tag: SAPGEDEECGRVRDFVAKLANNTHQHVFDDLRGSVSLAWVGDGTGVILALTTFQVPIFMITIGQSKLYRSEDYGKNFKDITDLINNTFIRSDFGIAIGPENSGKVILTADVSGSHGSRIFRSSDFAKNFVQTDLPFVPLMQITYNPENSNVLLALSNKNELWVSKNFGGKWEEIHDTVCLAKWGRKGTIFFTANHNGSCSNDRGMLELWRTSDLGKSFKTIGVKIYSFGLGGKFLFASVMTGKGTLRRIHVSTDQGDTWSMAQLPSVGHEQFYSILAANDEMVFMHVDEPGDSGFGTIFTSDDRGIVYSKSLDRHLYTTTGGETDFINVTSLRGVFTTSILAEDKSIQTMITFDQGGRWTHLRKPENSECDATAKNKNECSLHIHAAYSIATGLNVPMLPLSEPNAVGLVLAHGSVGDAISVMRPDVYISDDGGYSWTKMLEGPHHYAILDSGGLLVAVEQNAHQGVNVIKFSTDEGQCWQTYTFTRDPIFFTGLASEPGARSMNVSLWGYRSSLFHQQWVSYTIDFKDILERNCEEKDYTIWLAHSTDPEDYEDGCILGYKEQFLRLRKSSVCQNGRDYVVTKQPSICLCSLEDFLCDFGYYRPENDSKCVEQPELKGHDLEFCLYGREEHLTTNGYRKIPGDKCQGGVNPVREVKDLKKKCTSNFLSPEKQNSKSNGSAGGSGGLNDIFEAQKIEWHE

- EC50 [1]: 2.62 ng/mL
- EC50 [2]: 4.3 ng/mL
- EC50 (hBack): 4.07 ng/mL
- EC50 (hRim): 4.34 ng/mL
B1: Antibody 6003-1277 (antibody, V domains shown)
VH: QVQLVQSGAEVKKPGASVKVSCKTSGYTFTHYGISWVRQAPGQGLEWMGWINTYNGNTKYAQKLQGRVTMTTDTSTSTAYMELRSLRSDDTAVYYCASLGRNFDYWGQGTLVTVSS
VL: not shown

- EC50 [1]: 0.74 ng/mL
- EC50 [2]: 0.85 ng/mL
- EC50 (hBack): 0.85 ng/mL
- EC50 (hRim): 0.86 ng/mL
B2: Antibody 6003-030 (antibody, human IgG1, V domains shown)
VH: EVQVLESGGGLVQPGGSLRLSCAASGFTFSSYAMSWVRQAPGKGLEWVSTISGRGGNTYYADSVKGRFTISRDNSKNTLYLQMDSLRAEDTAVYYCAIIPSLYWYFDLWGRGTLVTVSS
VL: EIVLTQSPATLSLSPGERATLSCRASQSVSSYLAWYQQKPGQAPRLLIYDASNRATGIPARFSGSGSGTDFTLTISSLEPEDFAVYYCQQRSNWPLTFGGGTKVEIK
notes: Human antibody (HuMab); also called antibody 30; mAb30

- EC50 [1]: 1.56 ng/mL
- EC50 [2]: 1.96 ng/mL
- EC50 (hBack): 1.87 ng/mL
- EC50 (hRim): 2.04 ng/mL
B3: Antibody 6003-028 (antibody, human IgG1, V domains shown)
VH: B2 VH with V4L, N57S, D84N, I98N, I99L, P100Y, L102N
VL: B2 VL with Y32F

- EC50 [1]: 0.76 ng/mL
- EC50 [2]: 0.92 ng/mL
- EC50 (hBack): 1.34 ng/mL
- EC50 (hRim): 0.99 ng/mL
B4: Antibody 6003-083 (antibody, human IgG1, V domains shown)
VH: B2 VH with V4L, N57S, D84N, I99V, P100A, S101T, L102M
VL: B2 VL with L96I, G100Q, K103R, V104L

- EC50 [1]: 0.97 ng/mL
- EC50 [2]: 1.1 ng/mL
- EC50 (hBack): 1.14 ng/mL
- EC50 (hRim): 1.24 ng/mL
B5: Antibody 6003-056 (antibody, human IgG1, V domains shown)
VH: B2 VH with A23V, S35H, T50A, N57S, D84N
VL: B2 VL with Y32F

- EC50 [1]: 0.87 ng/mL
- EC50 [2]: 1.02 ng/mL
- EC50 (hBack): 1.02 ng/mL
- EC50 (hRim): 1.05 ng/mL
B6: Antibody 6003-1286 (antibody, human IgG1, V domains shown)
VH: B2 VH with V4L, D84N, T91A, I98N, P100Y, L102H
VL: B2 VL with S30N

- EC50 [1]: 1.34 ng/mL
- EC50 [2]: 2 ng/mL
- EC50 (hBack): 1.6 ng/mL
- EC50 (hRim): 2.28 ng/mL
B7: Antibody 6003-381 (antibody, human IgG1, V domains shown)
VH: QVQLVESGGGVVQPGRSLRLSCAASGFTFSNYVMHWVRQAPGKGLEWVAAISYNGNNKYYADSVKGRFTISRDNSKNTLYLQMNSLRAEDTAVSYCAKGLNDAFDIWGQGTMVTVSS
VL: not shown

- EC50 [1]: 1.68 ng/mL
- EC50 [2]: 2.58 ng/mL
- EC50 (hBack): 2.37 ng/mL
- EC50 (hRim): 2.78 ng/mL
B8: IgG1-6003-408 (antibody, V domains shown)
VH: EVQLVESGGGLVKPGGSLRLSCAASGFTFSSYSMNWVRQAPGKGLEWVSSISSSSSYIYYADSVKGRFTISRDNAKNSLYLQMNSLRAEDTAVYYCARRRIAAAGTGYGAFDIWGQGTMVTVSS
VL: ARQLTQSPSSLSASVGDRVTITCRASQGITSALAWYQQKPGKVPKLLIYDASSLESGVPSRFSGSGSGTDFTLTISSLQPEDFATYYCQQFNGYPMFSFGQGTKLEII
notes: also called Antibody 6003-408
